Consider 5 sequences from the supplement of paper PMC5998384.

For data set [1], the system named is HeLa Kyoto. The data set is described as follows: solubility in G1/S (NP-40 vs SDS abundance) (log2 ratio); higher = more soluble. To be noted: cell cycle stage: G1/S.
Data set [2] relates to HeLa Kyoto. The experiment in a line: melting temperature (median over replicates), in situ; higher = more thermally stable.
For data set [3], the system named is HeLa Kyoto. The data set is described as follows: solubility change mitosis vs G1/S (difference of NP-40 vs SDS log2 ratios) (log2 ratio difference); higher = more soluble in mitosis.
In data set [4] the test system is HeLa Kyoto. The experiment in a line: thermal stability score vs G1/S (z-score of summed log2 fold changes over temperatures); higher = more thermally stable than in G1/S.
Setting [5] is: cell cycle stage: early G1 (4.5 h after nocodazole release).
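For melting temperature (median over replicates), in situ in this document: HeLa Kyoto cells synchronized by double thymidine or nocodazole block, proteins quantified by TMT10plex mass spectrometry, three independent biological replicates.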
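For solubility change mitosis vs G1/S (difference of NP-40 vs SDS log2 ratios) in this document: synchronized HeLa Kyoto cells (double thymidine block for G1/S, nocodazole release for mitosis), protein amounts in NP-40 versus SDS lysates quantified by mass spectrometry, three biological replicates.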
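For solubility in G1/S (NP-40 vs SDS abundance) in this document: HeLa Kyoto cells arrested at G1/S by double thymidine block, proteins quantified by TMT10plex mass spectrometry in mild NP-40 versus SDS extracts, three biological replicates.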
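For thermal stability score vs G1/S (z-score of summed log2 fold changes over temperatures) in this document: synchronized HeLa Kyoto cells, proteins quantified by TMT10plex mass spectrometry, three biological replicates, mitosis taken 0.5 h after nocodazole release, G1/S directly after double thymidine block.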

Regarding “MDYRRLLMSRVVPGQFDDADSSDSENRDLKTVKEKDDILFEDLQDNVNENGEGEIEDEEEEGYDDDDDDWDWDEGVGKLAKGYVWNGGSNPQANRQTSDSSSAKMSTPADKVLRKFENKINLDKLNVTDSVINKVTEKSRQKEADMYRIKDKADRATVEQVLDPRTRMILFKMLTRGIITEINGCISTGKEANVYHASTANGESRAIKIYKTSILVFKDRDKYVSGEFRFRHGYCKGNPRKMVKTWAEKEMRNLIRLNTAEIPCPEPIMLRSHVLVMSFIGKDDMPAPLLKNVQLSESKARELYLQVIQYMRRMYQDARLVHADLSEFNMLYHGGGVYIIDVSQSVEHDHPHALEFLRKDCANVNDFFMRHSVAVMTVRELFEFVTDPSITHENMDAYLSKAMEIASQRTKEERSSQDHVDEEVFKRAYIPRTLNEVKNYERDMDIIMKLKEEDMAMNAQQDNILYQTVTGLKKDLSGVQKVPALLENQVEERTCSDSEDIGSSECSDTDSEEQGDHARPKKHTTDPDIDKKERKKMVKEAQREKRKNKIPKHVKKRKEKTAKTKKGK [RIOK1]”, the “solubility in G1/S (log2)” value with HeLa Kyoto [1] is -0.18. Further, the melting temperature is 52.3 °C with HeLa Kyoto [2] (cell cycle stage: G1/S) and 54.8 °C in the data set with HeLa Kyoto [2] (cell cycle stage: mitosis). The “solubility change mitosis (log2)” value in the data set on HeLa Kyoto [3] is 0.0777. The thermal stability score in the data set with HeLa Kyoto [4] (setting [5]) was 1.87; in the data set with HeLa Kyoto [4] (cell cycle stage: mitosis), 1.28.
Take “MEADIITNLRCRLKEAEEERLKAAQYGLQLVESQNELQNQLDKCRNEMMTMTESYEQEKYTLQREVELKSRMLESLSCECEAIKQQQKMHLEKLEEQLSRSHGQEVNELKTKIEKLKVELDEARLSEKQLKHQVDHQKELLSCKSEELRVMSERVQESMSSEMLALQIELTEMESMKTTLKEEVNELQYRQEQLELLITNLMRQVDRLKEEKEEREKEAVSYYNALEKARVANQDLQVQLDQALQQALDPNSKGNSLFAEVEDRRAAMERQLISMKVKYQSLKKQNVFNREQMQRMKLQIATLLQMKGSQTEFEQQERLLAMLEQKNGEIKHLLGEIRNLEKFKNLYDSMESKPSVDSGTLEDNTYYTDLLQMKLDNLNKEIESTKGELSIQRMKALFESQRALDIERKLFANERCLQLSESENMKLRAKLDELKLKYEPEETVEVPVLKKRREVLPVDITTAKDACVNNSALGGEVYRLPPQKEETQSCPNSLEDNNLQLEKSVSIYTPVVSLSPHKNLPVDMQLKKEKKCVKLIGVPADAEALSERSGNTPNSPRLAAESKLQTEVKEGKETSSKLEKETCKKLHPILYVSSKSTPETQCPQQ [SPDL1]”: the “solubility in G1/S (log2)” value in the data set with HeLa Kyoto [1] is 0.268. The melting temperature with HeLa Kyoto [2] (cell cycle stage: G1/S) is 47.2 °C; with HeLa Kyoto [2] (cell cycle stage: mitosis), 50.1 °C. Also, in the data set with HeLa Kyoto [3], the “solubility change mitosis (log2)” value was found to be 0.278. Also, the figures for the thermal stability score with HeLa Kyoto [4] (setting [5]) and in the data set with HeLa Kyoto [4] (cell cycle stage: mitosis) were 0.59 and 0.359, respectively.
With “MEAEGSSAPARAGSGEGSDSAGGATLKAPKHLWRHEQHHQYPLRQPQFRLLHPHHHLPPPPPPSPQPQPQCPLQPPPPPPLPPPPPPPGAARGRYASSGATGRVRHRGYSDTERYLYCRAMDRTSYAVETGHRPGLKKSRMSWPSSFQGLRRFDVDNGTSAGRSPLDPMTSPGSGLILQANFVHSQRRESFLYRSDSDYDLSPKSMSRNSSIASDIHGDDLIVTPFAQVLASLRTVRNNFAALTNLQDRAPSKRSPMCNQPSINKATITEEAYQKLASETLEELDWCLDQLETLQTRHSVSEMASNKFKRMLNRELTHLSEMSRSGNQVSEFISNTFLDKQHEVEIPSPTQKEKEKKKRPMSQISGVKKLMHSSSLTNSSIPRFGVKTEQEDVLAKELEDVNKWGLHVFRIAELSGNRPLTVIMHTIFQERDLLKTFKIPVDTLITYLMTLEDHYHADVAYHNNIHAADVVQSTHVLLSTPALEAVFTDLEILAAIFASAIHDVDHPGVSNQFLINTNSELALMYNDSSVLENHHLAVGFKLLQEENCDIFQNLTKKQRQSLRKMVIDIVLATDMSKHMNLLADLKTMVETKKVTSSGVLLLDNYSDRIQVLQNMVHCADLSNPTKPLQLYRQWTDRIMEEFFRQGDRERERGMEISPMCDKHNASVEKSQVGFIDYIVHPLWETWADLVHPDAQDILDTLEDNREWYQSTIPQSPSPAPDDPEEGRQGQTEKFQFELTLEEDGESDTEKDSGSQVEEDTSCSDSKTLCTQDSESTEIPLDEQVEEEAVGEEEESQPEACVIDDRSPDT [PDE4D]”, the “solubility in G1/S (log2)” value with HeLa Kyoto [1] was found to be 0.0456. Further, the melting temperature with HeLa Kyoto [2] (cell cycle stage: G1/S) worked out at 53.2 °C; with HeLa Kyoto [2] (cell cycle stage: mitosis), 51.1 °C. Moreover, the “solubility change mitosis (log2)” value with HeLa Kyoto [3] is -0.23. Also, the thermal stability score with HeLa Kyoto [4] (setting [5]) was -2.8; in the data set on HeLa Kyoto [4] (cell cycle stage: mitosis), -4.75.
Take “MEANGLGPQGFPELKNDTFLRAAWGEETDYTPVWCMRQAGRYLPEFRETRAAQDFFSTCRSPEACCELTLQPLRRFPLDAAIIFSDILVVPQALGMEVTMVPGKGPSFPEPLREEQDLERLRDPEVVASELGYVFQAITLTRQRLAGRVPLIGFAGAPWTLMTYMVEGGGSSTMAQAKRWLYQRPQASHQLLRILTDALVPYLVGQVVAGAQALQLFESHAGHLGPQLFNKFALPYIRDVAKQVKARLREAGLAPVPMIIFAKDGHFALEELAQAGYEVVGLDWTVAPKKARECVGKTVTLQGNLDPCALYASEEEIGQLVKQMLDDFGPHRYIANLGHGLYPDMDPEHVGAFVDAVHKHSRLLRQN [UROD]”: the “solubility in G1/S (log2)” value with HeLa Kyoto [1] was 0.254. Further, the melting temperature in the data set with HeLa Kyoto [2] (cell cycle stage: G1/S) was 56.5 °C; in the data set on HeLa Kyoto [2] (cell cycle stage: mitosis), 56.7 °C. Moreover, the “solubility change mitosis (log2)” value with HeLa Kyoto [3] was -0.193. The results for the thermal stability score with HeLa Kyoto [4] (setting [5]) and in the data set with HeLa Kyoto [4] (cell cycle stage: mitosis) were -0.168 and -0.608, respectively.
For the sequence “MEAPAAGLFLLLLLGTWAPAPGSASSEAPPLINEDVKRTVDLSSHLAKVTAEVVLAHLGGGSTSRATSFLLALEPELEARLAHLGVQVKGEDEEENNLEVRETKIKGKSGRFFTVKLPVALDPGAKISVIVETVYTHVLHPYPTQITQSEKQFVVFEGNHYFYSPYPTKTQTMRVKLASRNVESYTKLGNPTRSEDLLDYGPFRDVPAYSQDTFKVHYENNSPFLTITSMTRVIEVSHWGNIAVEENVDLKHTGAVLKGPFSRYDYQRQPDSGISSIRSFKTILPAAAQDVYYRDEIGNVSTSHLLILDDSVEMEIRPRFPLFGGWKTHYIVGYNLPSYEYLYNLGDQYALKMRFVDHVFDEQVIDSLTVKIILPEGAKNIEIDSPYEISRAPDELHYTYLDTFGRPVIVAYKKNLVEQHIQDIVVHYTFNKVLMLQEPLLVVAAFYILFFTVIIYVRLDFSITKDPAAEARMKVACITEQVLTLVNKRIGLYRHFDETVNRYKQSRDISTLNSGKKSLETEHKALTSEIALLQSRLKTEGSDLCDRVSEMQKLDAQVKELVLKSAVEAERLVAGKLKKDTYIENEKLISGKRQELVTKIDHILDAL [RPN1]”, in the data set with HeLa Kyoto [1], the “solubility in G1/S (log2)” value was determined as 0.0559. In addition, the melting temperature turned out to be 53.2 °C in the data set on HeLa Kyoto [2] (cell cycle stage: G1/S) and 53.6 °C in the data set with HeLa Kyoto [2] (cell cycle stage: mitosis). Further, the “solubility change mitosis (log2)” value in the data set with HeLa Kyoto [3] is -0.0592. Further, the results for the thermal stability score in the data set on HeLa Kyoto [4] (setting [5]) and in the data set on HeLa Kyoto [4] (cell cycle stage: mitosis) were 1.85 and 2.85, respectively.
